B1: Arabidopsis thaliana 1-deoxy-D-xylulose 5-phosphate synthase (59-717), C-terminal hexahistidine-FLAG tandem tag (enzyme, UniProt Q38854 59-717, looked up)
chain: ASLAEKGEYYSNRPPTPLLDTINYPIHMKNLSVKELKQLSDELRSDVIFNVSKTGGHLGSSLGVVELTVALHYIFNTPQDKILWDVGHQSYPHKILTGRRGKMPTMRQTNGLSGFTKRGESEHDCFGTGHSSTTISAGLGMAVGRDLKGKNNNVVAVIGDGAMTAGQAYEAMNNAGYLDSDMIVILNDNKQVSLPTATLDGPSPPVGALSSALSRLQSNPALRELREVAKGMTKQIGGPMHQLAAKVDEYARGMISGTGSSLFEELGLYYIGPVDGHNIDDLVAILKEVKSTRTTGPVLIHVVTEKGRGYPYAERADDKYHGVVKFDPATGRQFKTTNKTQSYTTYFAEALVAEAEVDKDVVAIHAAMGGGTGLNLFQRRFPTRCFDVGIAEQHAVTFAAGLACEGLKPFCAIYSSFMQRAYDQVVHDVDLQKLPVRFAMDRAGLVGADGPTHCGAFDVTFMACLPNMIVMAPSDEADLFNMVATAVAIDDRPSCFRYPRGNGIGVALPPGNKGVPIEIGKGRILKEGERVALLGYGSAVQSCLGAAVMLEERGLNVTVADARFCKPLDRALIRSLAKSHEVLITVEEGSIGGFGSHVVQFLALDGLLDGKLKWRPMVLPDRYIDHGAPADQLAEAGLMPSHIAATALNLIGAPREALF
notes: 1-deoxy-D-xylulose 5-phosphate synthase (DXPS), Arabidopsis thaliana, UniProt Q38854, residues 59-717, without the transit peptide; also called DXPS; DXPS-His-FLAG; source: E. coli BL21 Rosetta 2 (DE3), co-expressed with His-Hsp21 at 37 °C, purified (HisTrap, anti-FLAG M2); not shown: His6, C-terminal, kept; FLAG, C-terminal, kept

Key:
[1] = biological target: the molecule itself; experiment: cryo-EM structure; His-Hsp21 and DXPS-His-FLAG co-expressed in E. coli at 37 °C, purified together (HisTrap, anti-FLAG), 0.7 mg/mL; 3D classification gave free DXPS (4.0 Å) and Hsp21-DXPS (3.7 Å)
[2] = biological target: B1; experiment: as above; conditions: both partners purified
[3] = biological target: the molecule itself; experiment: cryo-EM structure; purified Hsp21 without substrate, 1 mg/mL; tetrahedral symmetry imposed, 4.6 Å

B1
stoichiometry N [1]: 2

B2: Arabidopsis thaliana plastid small heat shock protein Hsp21 (44-227), N-terminal hexahistidine tag (natural protein)
chain: not shown
notes: Hsp21, Arabidopsis thaliana, UniProt P31170, residues 44-227, without the transit peptide; Alone it is a dodecamer (twelve identical subunits, tetrahedral); In the complex with DXPS it is a single monomer; also called His-Hsp21; Hsp21 dodecamer; source: E. coli BL21 Rosetta 2 (DE3), co-expressed with DXPS-His-FLAG at 37 °C, complex purified (HisTrap, anti-FLAG M2); E. coli BL21 Rosetta (DE3), …
stoichiometry N [2]: 1 | stoichiometry N [3]: 12

From PMC8140096, “Structural basis of substrate recognition and thermal protection by a small heat shock protein” (Nature Communications, 2021)
